From patent publication US20240002499A1, “ANTI-CLIC1 PROTEIN ANTIBODIES AND THE DIAGNOSTIC AND THERAPEUTIC USES THEREOF” (Universita' Degli Studi di Milano, priority 2020, published 2024)

Tested on: human glioblastoma cells
Assay: Growth curves of human glioblastoma cells in primary culture
Format: cell-based
Source text: The primary glioblastoma cell lines, already tested for stem cell properties and carcinogenicity, were kindly supplied by Professor T. Florio's laboratory at Genoa University (Genoa, Italy). The cells were obtained from a surgical biopsy performed in the Neurosurgery Department of IRCCS-AOU San Martino IST (Genoa, Italy), from patients who had not received any treatment before the operation. The samples were histologically classified as GB grade IV (according to the WHO classification), and were used after obtaining the patients' informed consent and the approval of the Institutional Ethics Committee (IEC). The cells were cultured in stem cell-permissive medium consisting of Dulbecco's Modified Eagle's Medium (DMEM) and F12-GlutaMAX at the ratio of 1:1, supplemented with 1×B27 (Thermo Fisher Scientific), […] of fibroblast growth factor (FGF, Miltenyi Biotec), […] of human epidermal growth factor (EGF, Miltenyi Biotec) and 1% penicillin/streptomycin (Pen/Strep, […]) (Thermo Fisher Scientific).
The cells were seeded in 24-well plates (20,000 cells/well) and counted after 24, 48, 72 and 96 hours to construct the growth curve. The cells were collected and centrifuged, and the resuspended pellet was diluted 1:1 with Trypan Blue. An automated counter (Countess II, Thermo Fisher Scientific) was used to count the cells. All data were normalized to their controls.

B1: tmCLIC1omab: IgG1 class antibody containing the heavy chain variable region SEQ ID NO:13 and the light chain variable region SEQ ID NO:14 (antibody, listed as Mus musculus, V domains shown)
VH: EVMLVESGGGLVKPGGSLKLSCAASGFAFSNYAMSWIRQIPEKRLEWVATISTGGSSTFYPDSVKGRFTISRDNAKNTLYLQMSSLRSEDTAMYYCTRHAYEAWFAYWGQGTLVTVSA
VL: QIVLTQSPALMSASPGEKVTMTCSASSSVSYMYWYQQRPRSSPKPWIYLTSTLASGVPTRFSGSGSGTSYSLTISSMEAEDAATYYCQQWNSHPLTFGSGTKLEIK
Glioblastoma cells, FIG. 9
  growth rate compared with Clic1−/− knockout cells: the same growth rate
Primary culture, 4-day period
  cell growth (growth curve): inhibited cell growth
